From paper PMC7948976, “KIF3A accelerates KIF3C within the kinesin-2 heterodimer to generate symmetrical phosphate release rates for each processive step” (The Journal of Biological Chemistry, 2020)

Columns and labels:
Assay in all cases: stopped-flow presteady-state phosphate release, MDCC-PBP fluorescence; hyperbolic fit of initial exponential rates
Format in all cases: biochemical, Mus musculus
[1] = substrate: Nc1ncnc2c1ncn2[C@@H]1O[C@H](COP(=O)(O)OP(=O)(O)OP(=O)(O)O)[C@@H](O)[C@H]1O; details: preformed microtubule-KIF3 complex (2 μM MT, 0.5 μM dimer in syringe), 250 mM KCl in ATP syringe, 5 mM magnesium acetate, pH 7.2, 25 °C, not steady-state Km
From the text: stopped-flow presteady-state phosphate release, MDCC-PBP fluorescence; hyperbolic fit of initial exponential rates on KIF3AC

[2] = substrate: Nc1ncnc2c1ncn2[C@@H]1O[C@H](COP(=O)(O)OP(=O)(O)OP(=O)(O)O)[C@@H](O)[C@H]1O; details: preformed microtubule-KIF3 complex (2 μM MT, 0.5 μM dimer in syringe), 300 mM KCl in ATP syringe, 5 mM magnesium acetate, pH 7.2, 25 °C, not steady-state Km
From the text: stopped-flow presteady-state phosphate release, MDCC-PBP fluorescence; hyperbolic fit of initial exponential rates on KIF3AA

[3] = substrate: Nc1ncnc2c1ncn2[C@@H]1O[C@H](COP(=O)(O)OP(=O)(O)OP(=O)(O)O)[C@@H](O)[C@H]1O; details: preformed microtubule-KIF3 complex (2 μM MT, 0.5 μM dimer in syringe), 300 mM KCl in ATP syringe, 5 mM magnesium acetate, pH 7.2, 25 °C, not steady-state Km; remark: listed apart in the source
From the text: stopped-flow presteady-state phosphate release, MDCC-PBP fluorescence; hyperbolic fit of initial exponential rates on KIF3CC

B1: KIF3AC (Mus musculus) (protein)
chain 1: MPINKSEKPESCDNVKVVVRCRPLNEREKSMCYRQAVSVDEMRGTITVHKTDSSNEPPKTFTFDTVFGPESKQLDVYNLTARPIIDSVLEGYNGTIFAYGQTGTGKTFTMEGVRAVPGLRGVIPNSFAHIFGHIAKAEGDTRFLVRVSYLEIYNEEVRDLLGKDQTQRLEVKERPDVGVYIKDLSAYVVNNADDMDRIMTLGHKNRSVGATNMNEHSSRSHAIFTITIECSEKGVDGNMHVRMGKLHLVDLAGSERQAKTGATGQRLKEATKINLSLSTLGNVISALVDGKSTHVPYRNSKLTRLLQDSLGGNSKTMMCANIGPADYNYDETISTLRYANRAKNIKNKARINEDPKDALLRQFQKEIEELKKKL
chain 2: MASKTKASEALKVVARCRPLSRKEEAAGHEQILTMDVKLGQVTLRNPRAAPGELPKTFTFDAVYDASSKQADLYDETVRPLIDSVLQGFNGTVFAYGQTGTGKTYTMQGTWVEPELRGVIPNAFEHIFTHISRSQNQQYLVRASYLEIYQEEIRDLLSKEPGKRLELKENPETGVYIKDLSSFVTKNVKEIEHVMNLGNQARAVGSTHMNEVSSRSHAIFVITVECSERGSDGQDHIRVGKLNLVDLAGSERQNKAGPNAAGGPATQPTAGGGSGSGSASGSASSGERPKEASKINLSLSALGNVIAALAGNRSTHIPYRDSKLTRLLQDSLGGNAKTIMVATLGPASHSYDESLSTLRFANRAKNIKNKPRVNEDPKDTLLREFQEEIARLKAQL
notes: heterodimer; motor domain, neck linker and helix α7 (KIF3A Met1-Leu374, KIF3C Met1-Leu396), each fused to EB1 dimerization domain; KIF3A StrepII tag, KIF3C His8 tag, tags not cleaved; E. coli; dimer MW 98,318
- K0.5 [1]: 28.2 ± 1.8 µM

B2: KIF3AA (Mus musculus) (protein)
chain: B1 chain 1
notes: engineered homodimer; motor domain Met1-Leu374 fused to EB1 dimerization domain; His8 tag not cleaved; E. coli; dimer MW 97,004
- K0.5 [2]: 30.9 ± 4.7 µM

B3: KIF3CC (Mus musculus) (protein)
chain: B1 chain 2
notes: engineered homodimer; motor domain, neck linker and helix α7 (Met1-Leu396) fused to EB1 dimerization domain; His8 tag not cleaved; E. coli; dimer MW 99,518 (borders printed for the KIF3C chain of KIF3AC; mass agrees)
- K0.5 [3]: 13.9 ± 3.5 µM
